Assay results: patent publication US20250026813A1 (published 2025)
Values joined by “and” are separate entries in the source; they are usually repeats but may differ in a detail not shown here. Equal values may be shown once.

Legend:
[1] = molecular target: Receptor binding domain (Neil King, University of Washington) (SARS-CoV-2, UniProt P0DTC2 328-531)
[2] = molecular target: SARS-CoV-2 spike protein on live virus SARS-CoV-2 Victoria/01/2020 (SARS-CoV-2, UniProt P0DTC2 14-1273); experiment: cell-based or functional assay
[3] = molecular target: RBD domain of the SARS-CoV-2 spike protein (Acro Biosystems SPD-C52H3), His tag (SARS-CoV-2, UniProt P0DTC2 319-537)
[4] = molecular target: SARS-CoV-2 spike protein trimer, wild type (FIG. 2A sequence) with C-terminal trimerisation domain (SARS-CoV-2, UniProt P0DTC2 14-1213)
[5] = molecular target: SARS-CoV-2 S2 spike domain (Sino Biological) (SARS-CoV-2, UniProt P0DTC2 686-1213)
[6] = molecular target: SARS-CoV-2 spike protein receptor binding domain (RBD) (SARS-CoV-2, UniProt P0DTC2 319-541)
[7] = molecular target: SARS-CoV-2 spike protein N-terminal domain (NTD) (SARS-CoV-2, UniProt P0DTC2 14-305)
[8] = molecular target: SARS-CoV-2 spike receptor binding domain (RBD), antigen of Example 10 (SARS-CoV-2, UniProt P0DTC2 319-541)
[9] = molecular target: SARS-CoV-2 spike N-terminal domain (NTD), antigen of Example 10 (SARS-CoV-2, UniProt P0DTC2 14-305)

B1: IMPI-059 (antibody, V domains shown)
VH: EVQLVESGGGLIQPGGSLRLSCAASGFTVSSIYMSWVRQAPGKGLEWVSIIYSRGSTDYADSVKGRFTISRDISKNTLYLQMNSLRAEDTAVYYCARDGTMVRGVHAFDIWGQGTMVTVSS
VL: DIQMTQSPPSLSASIGDRVTITCQASQDISNYLNWYQQKPGKAPKLLIYDASNLETGVPSRFSGSGSGTDFTLTISNLQPEDIVTYYCQQYDNLPSSFGQGTKLEIK
With B1 the Kd [1] was under 1 nM and the “IC50, live virus foci (plaque) reduction neutralisation assay on Vero cells” value [2] was 0.026 nM.

B2: IMPI-004 (antibody, V domains shown)
VH: QVQLVESGGGVVQPGRSLRLSCAASGFTFSSYGMHWVRQAPGKGLEWVAVIWYDGGNKYYADSVKGRFTISRDNSKNTLYLQMNSLRAEDTAVYYCARVNVLMGYGMDVWGQGTTVTVSS
VL: EIVLTQSPGTLSLSPGDKATLSCRASQSIISSFLAWYQQKPGQAPRLLIYGASSRATGIPDRFSGSGSGTDFTLTISRLEPEDFAVYYCQQYGSSLTFGGGTKVEIK
For B2, the “IC50, live virus foci (plaque) reduction neutralisation assay on Vero cells” value [2] was 13 ng/ml and 86 pM.

B3: IMPI-002 (antibody, V domains shown)
VH: EVQLVESGGGLIQPGGSLRLSCAASGVTVSSNYMSWVRQAPGKGLEGVSVIYSGGSTYYADSVKGRFTISRDNSKNTLYLQMNSLRAEDTAVYYCARDTVVYGMDVWGQGTTVTVSS
VL: DIQLTQSPSFLSASVGDRVTITCWASQGISSYLAWYQQKPGKAPKLLIYAASTLQSGVPSRFSGSGSGTEFTLTISSLQPEDFATYYCQQLNSYPLTFGGGTKVEIK
With B3 the “HTRF deltaF” value [3] was 172 deltaF.

B4: IMPI-013 (antibody, V domains shown)
VH: EVQLVESGGGLVQPGRSLRLSCAASGFTFDDYAMHWVRQTPGKGLEWVSGISWNSGSIGYADSVKGRFTISRDNAKNSLYLQMNSLRAEDTALYYCTKDLGLGIGFYYGLDVWGQGTTVTVSS
VL: AIQMTQSPSSLSTSVGDRVTITCRASQGIRNDLGWYQLKPGKAPKLLIYDASTLQSGVPSRFSGSGSGTDFTLTISSLEPEDLATYYCLHHYTYPWTFGHGTKVELK
With B4 the Kd [4] was 0.67 nM and the Kd [5] was 0.126 nM.

B5: IMPI-063 (antibody, V domains shown)
VH: EVQLVESGGGVVRPGGSLRLSCAASGFTFDDYGMSWVRQAPGKGLEWVSGIYWNGGSTGYADSVKGRFTISRDNAKNSLYLQMNSLRAEDMALYYCARGVGATDYWGQGTLVTVSS
VL: EIVLTQSPGTLSLSSGERATLACRASESVRGSFLAWYQQKPGQAPRLLIYGASRRATGIPDRFSGSGSGTDFTLTISRLEPEDFAVYYCQQYGNSPMCSFGQGTKLEIK
With B5 the Kd [4] was 2.29 nM, the koff [4] was 0.000939 s⁻¹ and the kon [4] was 411000 M⁻¹ s⁻¹. The Kd [5] was 0.845 nM, the koff [5] was 7.77 s⁻¹ and the kon [5] was 9.19e+09 M⁻¹ s⁻¹.

B6: IMPI-033 (antibody, V domains shown)
VH: QVQLQESGPGLVKPSQTLSLTCTVSGGSISSYGYYWSWIRQHPGKGLEWIGYIYYSGSTYYNPSLKSRVTMSVDTSKNQLSLRLNSVSAADTAVYYCARDFGGNSNYFDYWGQGTLVTVSS
VL: AIQLTQSPSSLSASVGDRVTITCRASQGISSALAWYQQKPGKAPNLLIYDASSLESGVPSRFSGSGSGTDFTLTISSLQPEDFATYYCQQFNSSPLTFGGGTKVEIK
Work on B6 yielded a Kd [6] of 3.02 nM and a Kd [7] of 1820 nM.

B7: IMPI-038 (antibody, V domains shown)
VH: QVQLVESGGGVVQPGRSLRLSCAASGFTFSSYGMHWVRQAPGKGLEWVAVISYDGSDKYYADSVKGRFTISRDNSKNTLYLQMNSLRAEDTAVYYCAKTVAGYYYYYYGMDVWGQGTTVTVSS
VL: DIQMTQSPSSVSASVGDRVTVTCRASQDISSWLAWFQQKPGKAPKFLIYDASNLENGVPSRFSGSGSGTDFTLTISSLQPEDFATYYCQQAKSFPWTFGQGTKVEIN
B7 gave a Kd [6] of 0.826 nM and a Kd [7] of 475 nM.

B8: IMPI-042 (antibody, V domains shown)
VH: EVQLVESGGGLIQPGGSLRLSCAASGLTVSSNYMSWVRQAPGKGLEWVSIIYSGGSTYYADSVKGRFTISRDNSKNTLYLQMNSLRAEDTAVYYCARLGGYYYYGMDVWGQGTTVTVSS
VL: DIQMTQSPSSLSASVGERVTITCQASQDIRNYLNWYQKKPGKAPKLLIYDSSNLETGVPSRFSGGGSGTDFTFTISSLQPEDIATYYCQQYDNLPITFGQGTRLEIK
B8 showed a Kd [6] of 1.87 nM and a Kd [7] of 662 nM.

B9: IMPI-054 (antibody, V domains shown)
VH: EVQLVESGGGLIQPGGSLRLSCAASGLTVSSNYMSWVRQAPGKGLEWVSIIYSGGSTYYADSVKGRFTISRDNSKNTLYLQMNSLRAEDTAVYYCARLGGYYYYGMDVWGQGTTVTVSS
VL: DIQMTQSPSSLSASVGERVTITCQASQDIRNYLNWYQKKPGKAPKLLIYDSSNLETGVPSRFSGSGSGTDFTFTISSLQPEDIATYYCQQYDNLPITFGQGTRLEIK
For B9, the Kd [8] was 2.06 nM and the Kd [9] was 602 nM.

B10: IMPI-055 (antibody, V domains shown)
VH: QVQLVQSGAEVKKPGASVKVSCKASGYTFTSYDINWVRQATGQGLEWMGWMNPNSGNTGYAQKFQGRVTMTRDTSINTAYMELSSLRSEDTAVYFCARGGRYCSDVTCYSGEPFDYWGQGTLVTVSS
VL: EIMLTQSPDFQSVTPKEKVTITCRASQSIGSSLHWYQQKPDQSPKLLIKFASQSISGVPSRFSGSGSGTDFTLTINSLEAEDAAAYYCHQSSSLPHTFGPGTKVEIK
In the case of B10, the Kd [8] is reported as 1.85 nM and the Kd [9] is reported as 1360 nM.

B11: IMPI-056 (antibody, V domains shown)
VH: EVQLVESGGGLIQPGGSLRLSCAASGLTVSSNYMNWVRQAPGKKLEWVSVIYSGGSTFYADSVRGRFTISRDNSKNTLFLQMNSLRAEDSAVYYCARDLGPYGVDVWGQGTTVTVSS
VL: DIQLTQSPSFLSASVGDRVTITCWASQGISSYLAWYQQKPGKAPKLLIYAASTLQSGVPSRFSGSGSGTEFTLTISSLQPEDFATYYCQQLNSYPLTFGQGTRLEIK
Binder B11 has a Kd [8] of 1.59 nM and a Kd [9] of 682 nM.

B12: IMPI-059 (antibody, V domains shown)
VH: EVQLVESGGGLIQPGGSLRLSCAASGFTVSSIYMSWVRQAPGKGLEWVSIIYSRGSTDYADSVKGRFTISRDISKNTLYLQMNSLRAEDTAVYYCARDGTMVRGVHAFDIWGQGTMVTVSS
VL: DIQMTQSPPSLSASIGDRVTITCQASQDISNYLNWYQQKPGKAPKLLIYDASNLETGVPSRFSGSGSGTDFTLTISNLQPEDIVTYYCQQYDNLPSSFGQGTKLEIK
B12 showed a Kd [8] of 2.3 nM and a Kd [9] of 1650 nM.

B13: IMPI-060 (antibody, V domains shown)
VH: EVQLVESGGGLIQPGGSLRLSCAASGVTVSSNYMSWVRQAPGKGLEWVSVIYSGGSTFYADSVKGRFTISRDNSKNTLYLQMNSLRAEDTAVYYCARDLSYYGMDVWGQGTTVTVSS
VL: DIQLTQSPSFLSASVGDRVTITCWASQGISSYLAWYQQKPGKAPKLLIYAASTLQSGVPSKFSGSGSGTEFTLTISSLQPEDFATYYCQQLNSYPSSFGQGTKLEIK
B13 gave a Kd [8] of 141 nM.

B14: IMPI-067 (antibody, V domains shown)
VH: QVQLVESGGGVVQPGTSLRLSCAASGFTFNSFGMHWVRQAPGKGLEWVAVISYDGSSKYYADSVKGRFTISRDNSKNTLYLQMNSLRAEDTAVYYCAKDEGDYDDYYYGMDVWGQGTTVTVSS
VL: EIVLTQSPGSLSLSPGERATLSCRASQSLSSRYLAWYHQKPGQAPRLLIYGASSRATGIPDRFSGSGSGTDFTLTISGLEPEDFAVYYCQQYGNSITFGGGTKVEIK
For B14, the Kd [9] was 84.5 nM.

B15: IMPI-068 (antibody, V domains shown)
VH: QVQLVESGGDVVQPGRSLRLSCAASGFTFSRYGMHWVRQAPGKGLEWVAVISYDGSDKYYADSVKGRFTISRDNSKNTLYLQMNSLRAEDTAVYYCAKQLPLYYYYYGMDVWGQGTTVTVSS
VL: AIQLTQSPSSLSASVGDRVTITCRASQGISSALAWYQQKPGKAPNLLIYDASSLESGVPSRFSGSGSGTDFTLTISSLQPEDFATYYCQQFNIYPHTFGPGTKVDIK
B15 was tested, and the Kd [8] was 9.47 nM and the Kd [9] was 2570 nM.

B16: IMPI-029 (antibody, V domains shown)
VH: EVQLVESGGGLIQPGGSLRLSCAASGVTVSSNYMNWVRQAPGKGLEWVSVIYSGGSTYYADSVKGRFTISRDNSKNTLFLQMNSLRAEDSAVYYCARDLGPYGVDVWGQGTTVTVSS
VL: DIQLTQSPSFLSASVGDRVTITCWASQGISSYLAWYQQKPGKAPKLLIYAASTLQSGVPSRFSGSGSGTEFTLTISSLQPEDFATYYCQELNSYPLTFGQGTRLEIK
Work on B16 yielded a Kd [1] of under 1 nM.

B17: IMPI-056 (antibody, V domains shown)
VH: EVQLVESGGGLIQPGGSLRLSCAASGLTVSSNYMNWVRQAPGKKLEWVSVIYSGGSTFYADSVRGRFTISRDNSKNTLFLQMNSLRAEDSAVYYCARDLGPYGVDVWGQGTTVTVSS
VL: DIQLTQSPSFLSASVGDRVTITCWASQGISSYLAWYQQKPGKAPKLLIYAASTLQSGVPSRFSGSGSGTEFTLTISSLQPEDFATYYCQQLNSYPLTFGQGTRLEIK
B17 was tested, and the Kd [1] was under 1 nM.

B18: IMPI-006 (antibody, V domains shown)
VH: QLQLQESGPGLVKPSETLSLTCTVSGGSISNSNYYWGWIRQPPGKGLEWIGSIYYSGRTYYNPSLKSRVTISVDTSKNQFSLKLSSVTAADTAVYYCARMGLLWFGEFYGMDVWGQGTTVTVSS
VL: DIQMTQSPSSLSASVGDRVTITCRASQGISSWLAWYQQKPEKAPKSLIYDASSLQRGVPSRFSGSGSGTDFTLTISSLQPEDFASYYCQQYNSYPLTFGGGTRVEIK
For B18, the Kd [1] was under 1 nM.

B19: IMPI-055 (antibody, V domains shown)
VH: QVQLVQSGAEVKKPGASVKVSCKASGYTFTSYDINWVRQATGQGLEWMGWMNPNSGNTGYAQKFQGRVTMTRDTSINTAYMELSSLRSEDTAVYFCARGGRYCSDVTCYSGEPFDYWGQGTLVTVSS
VL: EIMLTQSPDFQSVTPKEKVTITCRASQSIGSSLHWYQQKPDQSPKLLIKFASQSISGVPSRFSGSGSGTDFTLTINSLEAEDAAAYYCHQSSSLPHTFGPGTKVEIK
B19 was tested, and the Kd [1] was under 1 nM.
